The values that follow come from the supplement of paper PMC9112550, “Optimization of the antimicrobial peptide Bac7 by deep mutational scanning” (BMC Biology, 2022).

This series deals with Escherichia coli TOP10. Put plainly: shrunken log2 fold change of peptide-encoding DNA abundance (4.5 h post-induction vs induction); higher = less antimicrobial activity (less host growth inhibition). To be noted: time post-induction: 4.5 h; library: site-saturation at positions 5, 18, 19, 20.
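Also: peptides expressed intracellularly from a pBAD plasmid library in pooled LB shake-flask culture, induced with 0.3% L-arabinose, DNA abundance read by NGS, three biological replicates, DESeq2 with apeglm shrinkage.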

Regarding RRIRMRPPRLPRPRPRPEPRPRP, the “shrunken log2 fold change” value amounted to 1.5.

Take RRIRSRPPRLPRPRPRPTSRPRP: the “shrunken log2 fold change” value was -0.0504. In the case of RRIRYRPPRLPRPRPRPHWWPRP it was -0.0763. Regarding RRIRIRPPRLPRPRPRPLRAPRP, the “shrunken log2 fold change” value was 0.367. Under RRIRRRPPRLPRPRPRPSEVPRP stands 1.94; under RRIRDRPPRLPRPRPRPSKVPRP, -0.152.

Take RRIRNRPPRLPRPRPRPNERPRP: the “shrunken log2 fold change” value amounted to 0.0308. In the case of RRIRMRPPRLPRPRPRPLRTPRP it was 3.45; in that of RRIRKRPPRLPRPRPRPTHQPRP, 0.612; in that of RRIRNRPPRLPRPRPRPIPLPRP, 0.0142. Turning to RRIRMRPPRLPRPRPRPSEIPRP, the “shrunken log2 fold change” value is -0.00151.

For RRIRYRPPRLPRPRPRPNYMPRP, the “shrunken log2 fold change” value is -0.357. RRIRRRPPRLPRPRPRPTTQPRP: the “shrunken log2 fold change” value came to 0.356. In the case of RRIRPRPPRLPRPRPRPNRTPRP it was -0.0847; in that of RRIRQRPPRLPRPRPRPCCHPRP, -0.197.

RRIRWRPPRLPRPRPRPRMWPRP: the “shrunken log2 fold change” value was determined as 0.36. For RRIRWRPPRLPRPRPRPARTPRP, the “shrunken log2 fold change” value stood at 0.705. In the case of RRIRLRPPRLPRPRPRPKVTPRP it was -0.00182; in that of RRIRLRPPRLPRPRPRPEDLPRP, 0.14; in that of RRIRDRPPRLPRPRPRPMCNPRP, -0.0221.

Regarding RRIRFRPPRLPRPRPRPKLTPRP, the “shrunken log2 fold change” value is -0.069. As to RRIRPRPPRLPRPRPRPIGTPRP, the “shrunken log2 fold change” value was -0.39. On to RRIRARPPRLPRPRPRPKGHPRP, for which the “shrunken log2 fold change” value stood at 0.359.

Take RRIRGRPPRLPRPRPRPQCMPRP: the “shrunken log2 fold change” value came out at 0.403. Turning to RRIRSRPPRLPRPRPRPKPSPRP, the “shrunken log2 fold change” value came to 0.263. In the case of RRIRIRPPRLPRPRPRPFDEPRP it was -0.288. In the case of RRIRIRPPRLPRPRPRPDRHPRP, the “shrunken log2 fold change” value was -0.504. In the case of RRIRFRPPRLPRPRPRPEWRPRP it was 0.531; in that of RRIRFRPPRLPRPRPRPHARPRP, 0.285; in that of RRIRSRPPRLPRPRPRPEFAPRP, 0.413.

For RRIRIRPPRLPRPRPRPWRQPRP, the “shrunken log2 fold change” value worked out at 0.0165. Under RRIRWRPPRLPRPRPRPKCAPRP stands 0.706; under RRIRPRPPRLPRPRPRPPDNPRP, 0.246; under RRIRPRPPRLPRPRPRPRKSPRP, 0.112. Under RRIRARPPRLPRPRPRPQHIPRP stands -0.0675. Consider RRIRKRPPRLPRPRPRPSGDPRP, for which the “shrunken log2 fold change” value is 0.485.

On to RRIRFRPPRLPRPRPRPEEAPRP, for which the “shrunken log2 fold change” value is 0.253. For RRIRQRPPRLPRPRPRPSHLPRP, the “shrunken log2 fold change” value was found to be 0.049. On to RRIRKRPPRLPRPRPRPVFVPRP, for which the “shrunken log2 fold change” value amounted to 0.141. Under RRIRHRPPRLPRPRPRPRFYPRP stands -0.015. On to RRIRDRPPRLPRPRPRPASEPRP, for which the “shrunken log2 fold change” value is 0.453. As to RRIRFRPPRLPRPRPRPKGCPRP, the “shrunken log2 fold change” value came to 0.418. Under RRIRTRPPRLPRPRPRPVFNPRP stands -0.65. In the case of RRIRVRPPRLPRPRPRPVQLPRP it was 0.258; in that of RRIRHRPPRLPRPRPRPTAPPRP, 0.184; in that of RRIRFRPPRLPRPRPRPPCAPRP, 0.576. Under RRIRVRPPRLPRPRPRPNCEPRP stands 3.97; under RRIRTRPPRLPRPRPRPDTWPRP, 0.0221. As to RRIRLRPPRLPRPRPRPNMDPRP, the “shrunken log2 fold change” value came out at 0.0212. As to RRIRGRPPRLPRPRPRPANDPRP, the “shrunken log2 fold change” value was determined as 0.902.

Take RRIRYRPPRLPRPRPRPLEHPRP: the “shrunken log2 fold change” value was -0.26. In the case of RRIRQRPPRLPRPRPRPTKDPRP, the “shrunken log2 fold change” value was -0.198. For the sequence RRIRDRPPRLPRPRPRPFDSPRP, the “shrunken log2 fold change” value is -0.0169. Under RRIRQRPPRLPRPRPRPLNDPRP stands -0.277; under RRIRPRPPRLPRPRPRPNDEPRP, 0.0306. Regarding RRIRARPPRLPRPRPRPRINPRP, the “shrunken log2 fold change” value worked out at 0.105. Turning to RRIRNRPPRLPRPRPRPGSSPRP, the “shrunken log2 fold change” value worked out at 0.0992.

For RRIRQRPPRLPRPRPRPWTIPRP, the “shrunken log2 fold change” value was -0.142. Take RRIRRRPPRLPRPRPRPPINPRP: the “shrunken log2 fold change” value came to 0.0262. Under RRIRERPPRLPRPRPRPFKWPRP stands -0.0223; under RRIRMRPPRLPRPRPRPHFPPRP, -0.106. Under RRIRERPPRLPRPRPRPFQPPRP stands -0.311. Under RRIRWRPPRLPRPRPRPYLIPRP stands -0.38; under RRIRDRPPRLPRPRPRPFPQPRP, 0.0191. In the case of RRIRQRPPRLPRPRPRPNCMPRP, the “shrunken log2 fold change” value is 0.188.

For the sequence RRIRIRPPRLPRPRPRPFPEPRP, the “shrunken log2 fold change” value was -0.45. For RRIRCRPPRLPRPRPRPVQSPRP, the “shrunken log2 fold change” value was determined as 0.132.

As for RRIRQRPPRLPRPRPRPSMVPRP, the “shrunken log2 fold change” value was -0.632. For RRIRFRPPRLPRPRPRPVYNPRP, the “shrunken log2 fold change” value was -1.27.

RRIRGRPPRLPRPRPRPEVGPRP: the “shrunken log2 fold change” value stood at 1.52.

As to RRIRFRPPRLPRPRPRPNAFPRP, the “shrunken log2 fold change” value turned out to be 0.00827. Regarding RRIRDRPPRLPRPRPRPYRRPRP, the “shrunken log2 fold change” value is -0.0062.

As for RRIRARPPRLPRPRPRPEMGPRP, the “shrunken log2 fold change” value was found to be 1.12. Regarding RRIRHRPPRLPRPRPRPCPFPRP, the “shrunken log2 fold change” value was -0.654. In the case of RRIRWRPPRLPRPRPRPECPPRP it was 0.341.

With RRIRNRPPRLPRPRPRPGIMPRP, the “shrunken log2 fold change” value was -0.186.

For the sequence RRIRWRPPRLPRPRPRPNRSPRP, the “shrunken log2 fold change” value was -0.0777. On to RRIRMRPPRLPRPRPRPNDLPRP, for which the “shrunken log2 fold change” value amounted to 0.0853. As to RRIRTRPPRLPRPRPRPMETPRP, the “shrunken log2 fold change” value was found to be 0.0774. In the case of RRIRDRPPRLPRPRPRPKASPRP it was 0.224; in that of RRIRVRPPRLPRPRPRPWKYPRP, -0.0321; in that of RRIRQRPPRLPRPRPRPRCSPRP, -0.232. Under RRIRHRPPRLPRPRPRPSYGPRP stands -0.34. Under RRIRTRPPRLPRPRPRPHMRPRP stands 0.161. In the case of RRIRHRPPRLPRPRPRPSTTPRP, the “shrunken log2 fold change” value is -0.416. In the case of RRIRRRPPRLPRPRPRPNDVPRP it was -0.0736; in that of RRIRTRPPRLPRPRPRPYINPRP, -0.879; in that of RRIRTRPPRLPRPRPRPAPMPRP, 0.202. In the case of RRIRHRPPRLPRPRPRPYKDPRP, the “shrunken log2 fold change” value was -0.017.

For the sequence RRIRWRPPRLPRPRPRPAMNPRP, the “shrunken log2 fold change” value was -0.326. Under RRIRLRPPRLPRPRPRPVKCPRP stands -0.122; under RRIRPRPPRLPRPRPRPSLDPRP, -0.0512; under RRIRERPPRLPRPRPRPGMQPRP, -0.328. In the case of RRIRERPPRLPRPRPRPRRGPRP, the “shrunken log2 fold change” value came out at 0.142.

With RRIRDRPPRLPRPRPRPWYMPRP, the “shrunken log2 fold change” value is -0.315. Turning to RRIRFRPPRLPRPRPRPMASPRP, the “shrunken log2 fold change” value was 0.037. Regarding RRIRVRPPRLPRPRPRPKTGPRP, the “shrunken log2 fold change” value was -0.048. As for RRIRFRPPRLPRPRPRPMYMPRP, the “shrunken log2 fold change” value was -0.183. In the case of RRIRQRPPRLPRPRPRPDQYPRP it was -0.0114; in that of RRIRNRPPRLPRPRPRPVFVPRP, -0.123; in that of RRIRWRPPRLPRPRPRPPIWPRP, 0.628. RRIRTRPPRLPRPRPRPKYNPRP: the “shrunken log2 fold change” value is -0.81. In the case of RRIRYRPPRLPRPRPRPEAMPRP it was -0.0891; in that of RRIRIRPPRLPRPRPRPIKCPRP, -0.446. Under RRIRARPPRLPRPRPRPCHAPRP stands 0.284; under RRIRERPPRLPRPRPRPDWKPRP, -0.0141.

Turning to RRIRYRPPRLPRPRPRPSQGPRP, the “shrunken log2 fold change” value was -0.031. Under RRIRARPPRLPRPRPRPTHYPRP stands 0.702; under RRIRGRPPRLPRPRPRPMIMPRP, -0.0509. Consider RRIRYRPPRLPRPRPRPTRLPRP, for which the “shrunken log2 fold change” value is 0.262. Regarding RRIRDRPPRLPRPRPRPYVHPRP, the “shrunken log2 fold change” value is -0.407. RRIRARPPRLPRPRPRPPKVPRP: the “shrunken log2 fold change” value was found to be 0.123. With RRIRYRPPRLPRPRPRPTDMPRP, the “shrunken log2 fold change” value turned out to be 0.00219. As for RRIRNRPPRLPRPRPRPVVCPRP, the “shrunken log2 fold change” value was -0.06. In the case of RRIRFRPPRLPRPRPRPQIIPRP, the “shrunken log2 fold change” value is -0.149. As for RRIRQRPPRLPRPRPRPADIPRP, the “shrunken log2 fold change” value was -0.01.

Consider RRIRRRPPRLPRPRPRPSSTPRP, for which the “shrunken log2 fold change” value was determined as 0.197. Regarding RRIRQRPPRLPRPRPRPVAAPRP, the “shrunken log2 fold change” value is 0.51.

Regarding RRIRSRPPRLPRPRPRPAKEPRP, the “shrunken log2 fold change” value was determined as 0.0106. In the case of RRIRMRPPRLPRPRPRPCLWPRP it was 0.0121; in that of RRIRCRPPRLPRPRPRPTLLPRP, 0.0984; in that of RRIRSRPPRLPRPRPRPMWFPRP, 0.14. In the case of RRIRHRPPRLPRPRPRPYGSPRP it was -0.0135; in that of RRIRMRPPRLPRPRPRPLCNPRP, 0.0857.

Consider RRIRWRPPRLPRPRPRPMATPRP, for which the “shrunken log2 fold change” value stood at 0.26.
